Measured values as given in patent US20090123479A1 (published 2009).
Values belong to the binder of their own block, whether it stands above or below them.

How the values were obtained:
[1] = molecular target: T1, recombinant human IL-23 (human, UniProt Q9NPF7 20-189; P29460 23-328); experiment: SPR (Biacore T100), CHO supernatant antibody captured on Protein A or anti-human IgG, IL-23 analyte at 10 concentrations 128-0.25 nM
T1 construct: also called hIL-23
T1 sequence 1: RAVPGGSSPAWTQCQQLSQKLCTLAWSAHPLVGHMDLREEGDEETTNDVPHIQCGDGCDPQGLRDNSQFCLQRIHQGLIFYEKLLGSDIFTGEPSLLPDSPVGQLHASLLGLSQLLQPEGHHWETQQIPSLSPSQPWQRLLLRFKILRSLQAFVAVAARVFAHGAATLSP
T1 sequence 2: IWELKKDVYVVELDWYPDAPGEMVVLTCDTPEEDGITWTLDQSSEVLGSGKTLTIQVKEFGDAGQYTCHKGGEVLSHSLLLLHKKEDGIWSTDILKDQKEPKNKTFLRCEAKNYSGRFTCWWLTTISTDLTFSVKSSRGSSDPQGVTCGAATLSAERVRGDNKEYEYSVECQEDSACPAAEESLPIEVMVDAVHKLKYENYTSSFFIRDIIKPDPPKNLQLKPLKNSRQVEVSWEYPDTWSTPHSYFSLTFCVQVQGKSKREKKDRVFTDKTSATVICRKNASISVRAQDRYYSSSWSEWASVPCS
Description: (§1) Protein A or an anti-human IgG (Biacore BR-1008-39) was immobilised on a Biacore CM5 chip by primary amine coupling in accordance with the manufacturer's instructions. Anti IL-23 antibodies were captured on this surface and after a period of stabilisation, […] was passed over the antibody captured surface and a binding sensorgram was obtained. […] All runs were double referenced with a buffer injection over the captured antibody surface. Data was analysed using the 1:1 model using the software inherent to the Biacore 3000 or T100 depending upon which machine was used to generate kinetics. Analysis was carried out at 25° C. using HBS-EP buffer. Data presented in Tables 3-6 are on tissue culture supernatants of CHO cells transiently expressing the antibody of interest unless otherwise indicated. […]

[2] = molecular target: T1, recombinant human IL-23; experiment: SPR (Biacore T100), purified material captured on Protein A or anti-human IgG, IL-23 analyte at 256, 64, 16, 4, 1 nM
Description: as §1, with “indicated. Data was generated using concentrations of IL-23 (256, 64, 16, 4, 1 and 0.25 nM) The data shown for the humanized variants is representative of a number of runs, The chimeric mAb (8C9H6.HC1LC1) was only run once in each experiment, so data shown for this mAb is from that one run,” for “indicated.”

[3] = molecular target: T1, recombinant human IL-23; experiment: SPR (Biacore 3000), CHO supernatant antibody captured on Protein A or anti-human IgG, IL-23 analyte at 100, 10, 1 nM
Description: as §1

[4] = molecular target: T1, recombinant human IL-23; experiment: SPR (Biacore T100), CHO supernatant antibody captured on Protein A or anti-human IgG, IL-23 analyte at 256, 64, 16, 4, 1 nM
[5] = molecular target: T1, recombinant human IL-23; experiment: SPR (Biacore T100), tissue culture supernatant antibody captured on anti-human IgG, IL-23 analyte
Description: Biacore analysis was carried out using a capture surface on a CM5 chip. Anti-human IgG (BR-1008-39) was used as the capturing agent. Anti-human IgG was coupled to a CM5 biosensor chip by primary amine coupling. Humanized antibody was captured on this immobilised surface and defined concentrations of IL-23 were passed over this captured surface. An injection of buffer over the captured antibody surface was used for double-referencing. […] T100 Biacore machine was used to generate the data; all runs were carried out at 25° C. using HBS EP. Data was analysed using the software inherent to the machine and fitted to the 1:1 model of binding. Tables 7 and 8 detail the IL-23 binding analysis carried out on the 8C92H6.HC1LC1 chimera and selected humanized variants in two separate experiments. […] The data shown for the humanized variants is representative of a number of runs. The chimeric mAb (8C9H6.HC1LC1) was only run once in each experiment, so data shown for this mAb is from that one run.

[6] = molecular target: T1, recombinant human IL-23; experiment: SPR (Biacore 3000), CHO supernatant antibody captured on Protein A or anti-human IgG, IL-23 analyte at 256, 64, 16, 4 nM

Kd [1]: 0.91 nM
koff [1]: 0.00029 s⁻¹
kon [1]: 320000 M⁻¹ s⁻¹
Kd [2]: 2.2 nM
koff [2]: 0.00043 s⁻¹
kon [2]: 200000 M⁻¹ s⁻¹
Kd [3]: 1.4 nM
koff [3]: 0.00039 s⁻¹
kon [3]: 270000 M⁻¹ s⁻¹
B1: chimeric 8C92H6 HC1LC1 (antibody, V domains shown)
VH: QVQLQQSGAELARPGTSVKLSCKASGYTFTSYGITWVKQRTGQGLEWIGENYPRSGNTYYNEKFKGKATLTADKSSSTAYMELRSLTSEDSAVYFCARCEFISTVVAPYYYALDYWGQGTSLVTVS
VL: DIVLTQSPASLAVSLGQKATISCKASKKVTIFGSISALHWYQQKPGQPPKLIYNGAKLESGVSARFSDSGSQNRSPFGNQLSFTLTIDPVEADDAATYYCLQNKEVPYTFGGGTKLEIKR
notes: Murine variable regions with human constant regions; also called 8C92H6.HC1LC1 Chimera; 8C9 chimera

Kd [4]: 0.92 nM
koff [4]: 0.00028 s⁻¹
kon [4]: 300000 M⁻¹ s⁻¹
Kd [5]: 0.17 nM
koff [5]: 0.000234 s⁻¹
kon [5]: 1.38e+06 M⁻¹ s⁻¹
Kd [6]: 1.1 nM
koff [6]: 0.00033 s⁻¹
kon [6]: 300000 M⁻¹ s⁻¹
B2: A3M0 (antibody, human IgG1, kappa, V domains shown)
VH: QVQLVQSGAEVKKPGSSVKVSCKASGYTFTSYGITWVRQAPGQGLEWMGENYPRSGNTYYNEKFKGRVTITADKSTSTAYMELSSLRSEDTAVYYCARSEFISTVVAPYYYALDYWGQGTLVTVSS
VL: DIVMTQSPDSLAVSLGERATINCKASKKVTIFGSISALHWYQQKPGQPPKLIYNGAKLESGVPDRFSGSGSGTDFTLTISSLQAEDVAVYYCLQNKEVPYTFGGGTKVEIKR
notes: Full length chains; also called humanized mAb A3M0
